Source: patent US20200347130A1 (JIANGSU HENGRUI MEDICINE, published 2020)
Residue numbers refer to the chain shown, from its start.

T1: CD96 extracellular region with His tag (CD96-His) (human, UniProt P40200 22-519)
T1 construct: also called CD96-ECD-His; Bio-CD96-His (biotin-labelled form)
T1 sequence: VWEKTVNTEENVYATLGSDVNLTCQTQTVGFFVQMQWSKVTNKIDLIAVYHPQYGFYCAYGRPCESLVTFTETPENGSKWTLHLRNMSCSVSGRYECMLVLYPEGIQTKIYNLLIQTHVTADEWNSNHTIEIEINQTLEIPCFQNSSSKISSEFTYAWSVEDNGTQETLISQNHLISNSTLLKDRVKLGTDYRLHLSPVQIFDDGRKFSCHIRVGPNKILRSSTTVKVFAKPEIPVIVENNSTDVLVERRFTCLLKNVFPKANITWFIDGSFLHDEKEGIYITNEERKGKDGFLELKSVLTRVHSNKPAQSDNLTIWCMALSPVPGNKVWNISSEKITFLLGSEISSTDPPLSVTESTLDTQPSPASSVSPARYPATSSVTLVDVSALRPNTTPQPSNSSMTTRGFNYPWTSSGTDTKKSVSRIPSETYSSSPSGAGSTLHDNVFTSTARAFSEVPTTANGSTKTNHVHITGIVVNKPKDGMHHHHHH

T2: Full-length human CD96 on CHO-S cells (human, UniProt P40200 22-585)
T2 construct: also called CD96-CHOs; hCD96-CHOs
T2 sequence: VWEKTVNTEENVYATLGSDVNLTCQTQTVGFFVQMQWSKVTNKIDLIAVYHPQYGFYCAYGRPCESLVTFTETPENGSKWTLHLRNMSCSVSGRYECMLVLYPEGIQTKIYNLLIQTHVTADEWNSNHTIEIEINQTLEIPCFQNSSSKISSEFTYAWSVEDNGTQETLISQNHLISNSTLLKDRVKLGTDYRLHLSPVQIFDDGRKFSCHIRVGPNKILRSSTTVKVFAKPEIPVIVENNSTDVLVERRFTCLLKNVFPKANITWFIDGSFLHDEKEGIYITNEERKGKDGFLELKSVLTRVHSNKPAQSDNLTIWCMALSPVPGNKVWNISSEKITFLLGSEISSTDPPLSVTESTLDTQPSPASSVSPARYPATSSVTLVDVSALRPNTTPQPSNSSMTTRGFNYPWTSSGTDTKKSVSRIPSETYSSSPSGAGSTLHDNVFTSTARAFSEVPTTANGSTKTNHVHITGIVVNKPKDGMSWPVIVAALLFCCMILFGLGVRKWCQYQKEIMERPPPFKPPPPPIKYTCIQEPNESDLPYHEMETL

B1: h1718-012 (antibody, V domains shown)
VH: EVQLVQSGAEVKKPGASVKVSCKASGYTITDYNMNWVRQAPGQRLEWIGVINPSYGITDYNQNFKDRVTITVDTSASTAYMELSSLRSEDTAVYYCAIQLRLPGYFDVWGQGTTVTVSS
VL: DIQMTQSPSSLSASVGDRVTITCKASQDINQYLNWFQQKPGKAPKTLIYRANRLVDGVPSRFSGSGSGQDYTLTISSLQPEDFATYYCLKYDEFPYTFGGGTKVEIK
notes: Only variable regions are tied to this name
B2: h1721-003 (antibody, V domains shown)
VH: EVTLKESGPVLVKPTETLTLTCTVSGFSLSSYGVNWIRQPPGKALEWLGVIWGDGSTNYHSALISRLTISKDTSKSQVVLTLTNMDPVDTATYYCAKNYFYGSRYGYAMDSWGQGTTVTVSS
VL: DIQMTQSPSSLSASVGDRVTITCRASENIYSSLAWYQQKPGKAPKLLIYNAKTLIEGVPSRFSGSGSGTDFTLTISSLQPEDFATYYCQHHYGTPYTFGGGTKVEIK
notes: Only variable regions are tied to this name; also called M721-003
B3: ch1722 (antibody, human IgG4 S228P, kappa, V domains shown)
VH: QVQLQQPGAELVKPGTSVKLSCKASGNTFIDYWMHWVKQRPGQGLEWIGMLHPNSGTTSFNEKFKIKTTLTIDKSSSTAYMQLSSLTSEDSAIYYCASDYSGPFAYWGQGTLVTVSA
VL: QIVLTQSPGIMSAFPGEKVTMTCSASSSVNYIHWYQQKSGTSPKRWIFDTSKLASGVPARFSGSGSGTSYSLTISSMEAEDAATYYCQQWRSNPLTFGAGTKLELKR
notes: also called chi722; chimeric antibody corresponding to m1722
B4: h1722-010 (antibody, V domains shown)
VH: EVQLVQSGAEVKKPGSSVKVSCKASGGTFSDYWMHWVRQAPGQGLEWIGMLHPNSGTTSFNEKFKIRVTITADKSTSTAYMELSSLRSEDTAVYYCASDYSGPFAYWGQGTLVTVSS
VL: DIQLTQSPSSLSASVGDRVTITCSASSSVNYIHWYQQKPGKAPKRWIFDTSKLASGVPSRFSGSGSGTDYTLTISSLQPEDFATYYCQQWRSNPLTFGQGTKLEIK
notes: Only variable regions are tied to this name; also called M722-010
B5: h1722-006 (antibody, V domains shown)
VH: B4 VH
VL: B4 VL with L4M, F48Y, Y70F
notes: as for B1
B6: h1722-017 (antibody, V domains shown)
VH: B4 VH with N54K
VL: B4 VL
B7: h1722-018 (antibody, V domains shown)
VH: B4 VH with N54Q
VL: B4 VL
B8: ch1720 (antibody, human IgG4 S228P, kappa, V domains shown)
VH: EFQLQQSGPELVKPGASVKISCKASAYSLTDYNMNWVKQSNGKSLEWIGVINPSYGISSYNQKFKGKATLTVDQSSSTAYMHLNSLTSEDSAVYYCARQLRLPGYFDVWGTGTTVTVSS
VL: DIKMTQSPSSKNASLGERVTITCKASQDINSYLNWFQQKPGKSPKTLIYRASRLVDGVPSRFSGSGSGQDYSLTISSLEYEDMGIYYCLKYDEFPYTFGGGTKLEIKR
notes: also called chimeric antibody corresponding to m1720
B9: ch1718 (antibody, human IgG4 S228P, kappa, V domains shown)
VH: B8 VH with L29I, S58T, S59D, K63N, G66D, H82Q, R98I, T116I
VL: B8 VL with K11M, N12Y, S31N, S52N, L104V
notes: also called chimeric antibody corresponding to m1718
B10: ch1719 (antibody, human IgG4 S228P, kappa, V domains shown)
VH: QVQLKESGPGLVAPSQSLSITCTVSGFSLISYGVSWVRQPPGKGLEWLGVIWGDGNTNYHSVLISRLSIRKDDSKSQVFLKLNSLQTDDTATYYCAKNNYYGSRYGYPMDYWGQGTSVTVSS
VL: DIVMTQSHKFMSTSVGDRVSITCKATQDVGTAVAWYQQKPGHSPKLLIYWASTRHTGVPERFTGSGSGTDFTLTIDNVQSEDLADYFCQQYGSSVLTFGAGTKVELRR
notes: also called chimeric antibody corresponding to m1719
B11: ch1721 (antibody, human IgG4 S228P, kappa, V domains shown)
VH: B10 VH with S35N, N56S, V62A, R70S, K81N, N99Y, Y100F, P108A, Y111S, T116I
VL: DIQMTQSPASLSAAVGETVTITCRASENIYSSLAWYQQKQGKSPQLLVYNAKTLIETVASRFSGSGSGTQYSLKINSLQPEDFGSFYCQHHYGTPYTFGGGTKLEIKR
notes: also called chimeric antibody corresponding to m1721
B12: h1719-010 (antibody, V domains shown)
VH: EVTLKESGPVLVKPTETLTLTCTVSGFSLSSYGVSWVRQPPGKGLEWLGVIWGDGNTNYHSVLISRLTISKDTSKSQVVLTLTNMDPVDTATYYCAKQNYYGSRYGYPIDYWGQGTTVTVSS
VL: DIQMTQSPSSVSASVGDRVTITCKATQDVGTAVAWYQQKPGKAPKLLIYWASTRHTGVPSRFSGSGSGTDFTLTISSLQPEDFATYYCQQYGSSVLTFGGGTKVEIK
notes: as for B1

Biological target: T1, CD96 extracellular region with His tag …
Assay: ELISA, CD96-His coated
Description: The binding capacity of the anti-CD96 antibody was tested by ELISA to determine the binding of the antibody to human CD96 protein. The His-tagged CD96 fusion protein was used to coat the microtiter plate, and the intensity of the signal after adding with the antibody was used for evaluating the binding activity of the antibody and CD96. The specific experimental method is as follows:
CD96-His with the sequence of SEQ ID NO: 4 prepared in Embodiment 1 was diluted to a concentration of 2 μg/ml with PBS buffer (Shanghai Yuanpei Biotechnology Co., Ltd. Cat No. B320), pH 7.4, added to a 96-well microtiter plate (Corning, Cat No. CLS3590-100EA) at a volume of 50 μl/well, and placed in an incubator at 37° C. for 2 hours. After discarding the liquid, 250 μl/well of 5% skim milk (BD, Cat No. 232100) blocking solution diluted with PBS was added, and the plate was incubated at 37° C. for 2.5 hours or at 4° C. overnight (16-18 hours) for blocking. After blocking, the blocking solution was discarded, and the plate was washed 4 times with PBST buffer (pH 7.4 PBS containing 0.05% tween-20). 50 μl/well of different concentrations of the antibodies to be tested (hybridoma purification antibody or humanized antibody) diluted with sample dilution was added, and the plate was incubated in an incubator at 37° C. for 1 hour. […] After washing the plate 4 times with PBST, 50 μl/well of TMB chromogenic substrate (KPL, Cat No. 52-00-03) was added, and the plate was incubated at room temperature for 5-15 minutes, followed by adding 50 μl/well of 1M H₂SO₄ to stop the reaction. The absorption value was read at 450 nm with a NOVOStar microplate reader, and the EC50 value of the binding of CD96 antibody to human CD96 was calculated (see Table 13).

EC50 [pM] | Binder
95 | B1
70 | B2
94 | B3
73 | B4
77 | B5
113 | B6
91 | B7
74 | B8
84 | B9
65 | B10
75 | B11

Biological target: T1, CD96 extracellular region with His tag …
Assay: SPR (Biacore), antibody captured, CD96-ECD-His as mobile phase
From the text: Protein A biosensor chip was used to capture antibodies to be tested, then CD96 antigen was flowed on the surface of the chip, and real time reaction signal was detected by Biacore to obtain the binding and dissociation curve. After the dissociation of each experimental cycle was completed, the biosensor chip was washed and regenerated with a glycine-hydrochloric acid regeneration solution (pH 1.5).

Kd [pM] | Binder
3980 | B1
1610 | B2
1050 | B3
465000 | B12
860 | B4
1190 | B5
1350 | B8
3320 | B9
9740 | B10
2280 | B11

Biological target: T2, Full-length human CD96 on CHO-S cells
Assay: cell ELISA, fixed CD96-overexpressing CHO-S cells
Description: The binding capacity of the anti-CD96 antibody was tested by binding experiments of the antibody to human CD96 protein overexpressing CHO-S cells. The full-length CD96 plasmid was transfected into CHO-S cells by electrotransfection, and cells were then screened for two weeks under pressure for the detection of the expression of CD96. After the over-expressing cells were fixed at the bottom of the 96-well plate, the density of the signal after adding the antibody was used to judge the binding activity of the antibody to CD96 overexpressing CHO-S cells. The specific experimental method is as follows:
The cells were seeded at a density of 9×10⁴/100 μL/well in a 96-well plate and cultured overnight. After aspirating the supernatant, the plate was washed once with PBS, subsequently, 100 μl/well immunostaining fixation solution (Biyuntian, P0098) was added and fixed for one hour at room temperature, and the plate was washed three times with PBS. Once the liquid was discarded, 250 μl/well of 5% skim milk (BD, 232100) blocking solution diluted with PBS was added, and the plate was blocked in an incubator at 37° C. for 2.5 hours. After blocking, the blocking solution was discarded, the plate was washed 4 times with PBST buffer (pH 7.4 PBS containing 0.05% tween-20), followed by diluting 50 μl/well of different concentrations of the antibodies (hybridoma purification antibody or humanized antibody) to be tested the plate was incubated in an incubator at 37° C. for 2 hours. After incubation, the plate was wash 4 times with PBST. […] After washing the plate 4 times with PBST, 50 μl/well of TMB chromogenic substrate (KPL, Cat No. 52-00-03) was added, the plate was incubated at room temperature for 10-25 min, followed by adding 50 μl/well of 1M H₂SO₄ to stop the reaction. The absorption value was read at 450 nm with a NOVOStar microplate reader, and the EC50 value of the CD96 antibodies to CD96 overexpressing CHO-S cells was calculated (see FIG. 1 and Table 15).

EC50 [pM] | Binder
31 | B1
74 | B2
43 | B3
47 | B4
43 | B5
53 | B6
44 | B7
36 | B8
26 | B9
12 | B10
36 | B11
